Each block holds one binder with its values, some of them ahead of it.
Columns and labels:
IAA7 degron = molecular target: T1, IAA7 degron (Arabidopsis thaliana, UniProt Q38825, auxin); assay: BLI
T1 chain: QVVGWPPVRNYRK

His-CA14 = assay: 200 uM CBD; AlphaScreen competition with Biotin-DB21
His-CA14 D34A = assay: as above
His-DDB1–CRBN complex = His-DDB1–CRBN complex (human, UniProt Q96SW2 41-442; Q16531 1-1140); assay: 200 uM pomalidomide; AlphaScreen competition
GST-TIR1-ASK1 complex = molecular target: T2, GST-TIR1-ASK1 complex (Arabidopsis thaliana, UniProt Q570C0 1-594; Q39255 1-160); assay: 200 uM auxin; AlphaScreen competition with biotin-Aux/IAA7
T2 chain 1: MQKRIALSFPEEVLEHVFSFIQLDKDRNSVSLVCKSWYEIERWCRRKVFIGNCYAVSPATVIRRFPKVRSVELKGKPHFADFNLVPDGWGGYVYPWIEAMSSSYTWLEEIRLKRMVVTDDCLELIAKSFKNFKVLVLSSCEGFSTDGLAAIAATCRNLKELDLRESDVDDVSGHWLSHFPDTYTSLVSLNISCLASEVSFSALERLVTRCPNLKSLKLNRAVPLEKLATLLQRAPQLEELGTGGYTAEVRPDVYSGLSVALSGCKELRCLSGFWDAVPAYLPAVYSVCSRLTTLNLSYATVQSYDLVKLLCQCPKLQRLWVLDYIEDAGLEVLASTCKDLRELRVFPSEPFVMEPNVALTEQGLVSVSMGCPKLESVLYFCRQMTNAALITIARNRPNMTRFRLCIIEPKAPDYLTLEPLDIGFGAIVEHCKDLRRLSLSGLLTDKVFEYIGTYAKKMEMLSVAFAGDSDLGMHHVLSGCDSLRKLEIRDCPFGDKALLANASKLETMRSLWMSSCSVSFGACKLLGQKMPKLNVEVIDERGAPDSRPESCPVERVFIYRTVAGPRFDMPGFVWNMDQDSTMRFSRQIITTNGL
T2 chain 2: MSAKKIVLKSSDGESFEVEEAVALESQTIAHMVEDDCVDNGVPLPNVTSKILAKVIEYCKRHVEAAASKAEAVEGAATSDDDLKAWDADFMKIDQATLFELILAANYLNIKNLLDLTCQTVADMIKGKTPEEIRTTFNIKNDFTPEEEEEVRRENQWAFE

Biotinylated DB21 H101A = Biotinylated DB21 H101A (biotin on the Avi-tag (BirA-catalyzed)); assay: BLI; 200 uM CBD
[1] = molecular target: T3, Biotinylated DB21 F48A-H101A (biotin on the Avi-tag (BirA-catalyzed)); assay: BLI; 200 uM CBD
Biotinylated DB21 F48A [2] = molecular target: T4, Biotinylated DB21 F48A (biotin on the Avi-tag (BirA-catalyzed)); assay: BLI; 200 uM CBD
[3] = molecular target: T3, Biotinylated DB21 F48A-H101A; assay: no CBD; AlphaScreen competition
Biotinylated DB21 F48A [4] = molecular target: T4, Biotinylated DB21 F48A; assay: no CBD; AlphaScreen competition
[5] = molecular target: T3, Biotinylated DB21 F48A-H101A; assay: 200 uM CBD; AlphaScreen competition
Biotinylated DB21 F48A [6] = molecular target: T4, Biotinylated DB21 F48A; assay: 200 uM CBD; AlphaScreen competition
[7] = molecular target: T5, Biotin-DB21 (biotinylated Avi-DB21) (biotin on the Avi-tag (BirA-catalyzed)); assay: no CBD; AlphaScreen competition with His-CA14
[8] = molecular target: T5, Biotin-DB21 (biotinylated Avi-DB21); assay: 200 uM CBD; AlphaScreen competition with His-CA14

B2: DB21 dimerization binder nanobody, tag-free (VHH)
VHH: EVQLQASGGGFVQPGGSLRLSCAASGTTYGQTNMGWFRQAPGKEREFVSAISGLQGRDLYYADSVKGRFTISRDNSKNTVYLQMNSLRAEDTATYYCAFHDFLRMWEYWGQGTQVTVSS
IC50 (His-CA14): 35 nM | IC50 (His-CA14 D34A): 27000 nM

B4: IAA7 degron peptide, non-labeled (peptide)
chain: QVVGWPPVRNYRK
modifications: synthetic peptide, unlabelled; limits not given, taken from the IAA7 degron peptide of the TIR1-ASK1 crystal structures (13-mer, PDB 2P1Q)
IC50 (GST-TIR1-ASK1 complex): 18.4 nM

B5: CA14 anchor binder nanobody, tag-free (VHH)
VHH: EVQLQASGGGFVQPGGSLRLSCAASGSTSRQYDMGWFRQAPGKEREFVSAISSNQDQPPYYADSVKGRFTISRDNSKNTVYLQMNSLRAEDTATYYCAFKQHHANGAYWGQGTQVTVSS
Kd (Biotinylated DB21 H101A): 215 nM | Kd [1]: 1900 nM | Kd (Biotinylated DB21 F48A [2]): 1500 nM | IC50 [3]: 23000 nM | IC50 (Biotinylated DB21 F48A [4]): 18000 nM | IC50 [5]: 4700 nM | IC50 (Biotinylated DB21 F48A [6]): 1700 nM | IC50 [7]: 17000 nM | IC50 [8]: 31 nM

Further lines, results first:

Kd (IAA7 degron): 30.5 nM
B1: TIR1 (protein)
chain: T2 chain 1

IC50 (His-DDB1–CRBN complex): 67 nM
B3: Label-free IKZF1 ZF2-3 (141-196) (domain or fragment)
chain: GERPFQCNQCGASFTQKGNLLRHIKLHSGEKPFKCHLCNYACRRRDALTGHLRTHS
